# Measured values as given in patent US20220251204A1 (AstraZeneca / MedImmune, published 2022).
# Tests used:
# [1] = molecular target: T1, human PD-1 expressed on cells (human, UniProt Q15116 25-288); test: cell-based or functional assay
# [2] = molecular target: T2, human CTLA-4 expressed on cells (human, UniProt P16410 36-223); test: cell-based or functional assay
# T2 sequence: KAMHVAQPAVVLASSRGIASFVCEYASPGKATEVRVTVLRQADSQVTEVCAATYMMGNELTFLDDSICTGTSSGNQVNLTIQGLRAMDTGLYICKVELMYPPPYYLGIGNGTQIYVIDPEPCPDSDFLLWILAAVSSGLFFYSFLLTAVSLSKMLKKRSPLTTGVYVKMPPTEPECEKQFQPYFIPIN
# [3] = molecular target: T2, human CTLA-4 expressed on cells; test: receptor occupancy on CHO cells, flow cytometry
# [4] = molecular target: T1, human PD-1 expressed on cells; test: flow cytometry, CHO cells expressing PD-1 only
# [5] = molecular target: T2, human CTLA-4 expressed on cells; test: flow cytometry, CHO cells expressing CTLA-4 only
# [6] = molecular target: T2, human CTLA-4 expressed on cells; test: receptor occupancy on CHO cells expressing excess PD-1, flow cytometry
# [7] = molecular target: T3, cynomolgus PD-1 (cynomolgus, UniProt B0LAJ3 25-170); test: SPR, BIAcore T200; antibody captured on mouse anti-huIgG-Fab, antigen injected
# T3 construct: also called cyno PD1
# T3 sequence (B0LAJ3 entry or part of it limits assumed): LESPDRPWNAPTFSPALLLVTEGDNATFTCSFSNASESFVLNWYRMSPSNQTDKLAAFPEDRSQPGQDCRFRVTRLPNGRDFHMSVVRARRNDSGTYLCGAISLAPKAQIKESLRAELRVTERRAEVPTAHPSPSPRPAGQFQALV
# Experimental: (§1) Binding experiments were carried out using a BIAcore T200 instrument (BIAcore). To capture the antibody, mouse anti-huIgG-Fab was immobilized on a CM5 chip to a target response of 2000 RU. 100 nM of the DuetMab or mAbs were flowed at 20 μL/min for 5 min to achieve approximately 100 response units of captured antibody. Antigen were then injected serially at a flow rate of 50 μl/min for 5 min. Kinetic parameters (kₒₙ and koff) and dissociation constant (KD) were calculated from a non-linear fit using BIAevaluation 4.1 software.
# [8] = molecular target: T4, mouse PD-1 (mouse, UniProt Q02242 25-167); test: as above
# T4 construct: also called mu PD1
# T4 sequence (looked up): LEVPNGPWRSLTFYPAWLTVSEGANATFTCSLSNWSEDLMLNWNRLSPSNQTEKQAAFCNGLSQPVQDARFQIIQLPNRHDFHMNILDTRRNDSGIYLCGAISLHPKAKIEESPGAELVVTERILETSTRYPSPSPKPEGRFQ
# Experimental: as §1
# [9] = molecular target: T5, human CTLA-4 antigen (soluble) (human, UniProt P16410 36-161); test: as above
# T5 construct: also called hu CTLA4; soluble CTLA-4 antigen
# T5 sequence: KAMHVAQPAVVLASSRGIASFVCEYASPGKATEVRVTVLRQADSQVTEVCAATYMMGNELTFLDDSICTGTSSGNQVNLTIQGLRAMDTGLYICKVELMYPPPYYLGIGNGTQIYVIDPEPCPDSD
# Experimental: as §1
# [10] = molecular target: T6, cynomolgus CTLA-4 (cynomolgus, UniProt G7PL88 36-161); test: as above
# T6 construct: also called cyno CTLA4
# T6 sequence: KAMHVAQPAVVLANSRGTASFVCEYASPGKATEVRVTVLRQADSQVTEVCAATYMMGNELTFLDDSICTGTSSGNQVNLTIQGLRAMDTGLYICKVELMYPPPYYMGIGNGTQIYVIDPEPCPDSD
# Experimental: as §1
# [11] = molecular target: T7, human PD-1 antigen (soluble) (human, UniProt Q15116 25-170); test: as above
# T7 construct: also called hu PD1; Biotinylated human PD-1
# T7 sequence (Q15116 25-170 limits assumed): as the sequence (B0LAJ3 entry or part of it limits assumed) above, with E2D, A10P, L19V, A35T, R75Q, A144T counted along it
# Experimental: as §1
# [12] = molecular target: T2, human CTLA-4 expressed on cells; test: flow cytometry receptor occupancy, CHO cells expressing CTLA-4 only; free CTLA-4 detected with labeled anti-CTLA-4 mAb
# [13] = molecular target: T1, human PD-1 expressed on cells; test: flow cytometry receptor occupancy, CHO cells expressing PD-1:CTLA-4 (10:1); free PD-1 detected with labeled anti-PD-1 mAb
# [14] = molecular target: T1, human PD-1 expressed on cells; test: flow cytometry receptor occupancy, CHO cells expressing PD-1:CTLA-4 (40:1); free PD-1 detected with labeled anti-PD-1 mAb
# [15] = molecular target: T2, human CTLA-4 expressed on cells; test: flow cytometry receptor occupancy, CHO cells expressing PD-1:CTLA-4 (10:1); free CTLA-4 detected with labeled anti-CTLA-4 mAb
# [16] = molecular target: T2, human CTLA-4 expressed on cells; test: flow cytometry receptor occupancy, CHO cells expressing PD-1:CTLA-4 (40:1); free CTLA-4 detected with labeled anti-CTLA-4 mAb
# [17] = molecular target: T2, human CTLA-4 expressed on cells; test: flow cytometry receptor occupancy, CHO cells expressing PD-1:CTLA-4 (10:1); free CTLA-4 detected with labeled anti-CTLA-4 mAb; remark: listed apart in the source
# [18] = molecular target: T2, human CTLA-4 expressed on cells; test: flow cytometry receptor occupancy, CHO cells expressing PD-1:CTLA-4 (40:1); free CTLA-4 detected with labeled anti-CTLA-4 mAb; remark: listed apart in the source
# T1 sequence (Q15116 25-288 limits assumed): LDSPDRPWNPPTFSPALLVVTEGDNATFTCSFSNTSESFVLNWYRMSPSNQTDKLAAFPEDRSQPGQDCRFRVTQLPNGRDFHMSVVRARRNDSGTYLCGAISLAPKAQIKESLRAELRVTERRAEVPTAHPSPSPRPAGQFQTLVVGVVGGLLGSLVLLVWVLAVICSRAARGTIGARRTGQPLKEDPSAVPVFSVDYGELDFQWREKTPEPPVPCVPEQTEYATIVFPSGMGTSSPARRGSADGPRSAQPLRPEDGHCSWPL
binder,measurement,setting,value
"PD-1/CTLA-4 DuetMab (bispecific antibody, human IgG1, kappa, lambda, also called DuetMab PD-1/CTLA-4; PD-1/CTLA-4 DuetMab bispecific antibody; copies: 1 + 1 + 1 + 1) heavy 1: EVQLVESGGGLVQPGGSLRLSCAASGFTFSDYGMHWVRQAPGKGLEWVAYISSGSYTIYSADSVKGRFTISRDNAKNSLYLQMNSLRAEDTAVYYCARRAPNSFYEYYFDYWGQGTTVTVSSASTKGPSVFPLAPSSKSTSGGTAALGCLVKDYFPEPVTVSWNSGALTSGVHTFPAVLQSSGLYSLSSVVTVPSSSLGTQTYICNVNHKPSNTKVDKRVEPKSCDKTHTCPPCPAPEFEGGPSVFLFPPKPKDTLMISRTPEVTCVVVDVSHEDPEVKFNWYVDGVEVHNAKTKPREEQYNSTYRVVSVLTVLHQDWLNGKEYKCKVSNKALPASIEKTISKAKGQPREPQVCTLPPSREEMTKNQVSLSCAVKGFYPSDIAVEWESNGQPENNYKTTPPVLDSDGSFFLVSKLTVDKSRWQQGNVFSCSVMHEALHNHYTQKSLSLSPGK light 1: QIVLTQSPATLSLSPGERATLSCSASSKHTNLYWSRHMYWYQQKPGQAPRLLIYLTSNRATGIPARFSGSGSGTDFTLTISSLEPEDFAVYYCQQWSSNPFTFGQGTKLEIKRTVAAPSVFIFPPSDEQLKSGTASVVCLLNNFYPREAKVQWKVDNALQSGNSQESVTEQDSKDSTYSLSSTLTLSKADYEKHKVYACEVTHQGLSSPVTKSFNRGEC heavy 2: not shown light 2: DIQMTQSPSSLSASVGDRVTITCRASQSINSYLDWYQQKPGKAPKLLIYAASSLQSGVPSRFSGSGSGTDFTLTISSLQPEDFATYYCQQYYSTPFTFGPGTKVEIKGQPKAAPSVTLFPPCSEELQANKATLVCLISDFYPGAVTVAWKADSSPVKAGVETTTPSKQSNNKYAASSYLSLTPEQWKSHRSYSCQVTHEGSTVEKTVAPTEVS","fold decrease in PD-1 reporter gene assay, potency",[1],~9 fold
same,"fold decrease in CTLA-4 reporter gene assay, potency",[2],~16 fold
same,"fold lower concentration to saturate CTLA-4, against cells expressing only CTLA-4",[3],~500 fold
same,EC50 (read off the curve),[4],~4000 pM
same,EC50 (read off the curve),[5],~4000 pM
same,"fold lower concentration to saturate CTLA-4, against a combination of the monoclonal antibodies",[6],~250 fold
same,Kd,[7],440 pM
same,koff,[7],0.000215 s⁻¹
same,kon,[7],490000 M⁻¹ s⁻¹
same,Kd,[8],496000 pM
same,koff,[8],0.0693 s⁻¹
same,kon,[8],140000 M⁻¹ s⁻¹
same,Kd,[9],620 pM
same,koff,[9],0.000421 s⁻¹
same,kon,[9],684000 M⁻¹ s⁻¹
same,Kd,[10],550 pM
same,koff,[10],0.000634 s⁻¹
same,kon,[10],1.14e+06 M⁻¹ s⁻¹
same,Kd,[11],810 pM
same,koff,[11],0.000236 s⁻¹
same,kon,[11],295000 M⁻¹ s⁻¹
same,IC50,[12],4600 pM
same,IC50,[13],12200 pM
same,IC50,[14],14400 pM
same,IC50,[15],380 pM
same,IC50,[16],10 pM
same,IC50,[17],380 pM
same,IC50,[18],10 pM
